Assay results from paper PMC4338043 (PLoS ONE, 2015).

B1: Burkholderia thailandensis inosine-5'-monophosphate dehydrogenase (enzyme, Burkholderia thailandensis strain E264, UniProt Q2SWW9 1-486, looked up)
chain: MRLIQKALTFDDVLLVPAFSDVLPRDTSLKTQLTRHISLNMPLVSAAMDTVTEGRLAIAMAQQGGVGIVHKNLTPVEQAREVAKVKRFESGVVRDPITVPPSMKVRDVIALSRQHGISGFPVLEGPKLVGIVTNRDLRFETRLDEPVKSIMTPRERLVTVAEGTPLAEAKALMHSHRLERVLVVNDAFELRGLMTVKDITKQTEHPEACKDEHGKLRVGAAVGVGADNEERVELLVQAGVDVIVVDTAHGHSKGVLERVRWVKQNFPKVEVIGGNIATAAAAKALVEYGADAVKVGIGPGSICTTRIVAGVGVPQISAIANVSDALRGTGVPCIADGGIRFSGDVSKALAAGANAVMMGSMFAGTEEAPGDVFLYQGRQYKSYRGMGSVGAMKDGAADRYFQDNSANIDKLVPEGIEGRVAYKGSVNAIIFQLIGGVRASMGYCGCKTIAEMHEKAEFVEITAAGMRESHVHDVQITKEAPNYHVD
notes: also called IMPDHbt; class II IMPDH
B2: Staphylococcus aureus inosine-5'-monophosphate dehydrogenase (enzyme, Staphylococcus aureus strain N315, UniProt P99106 1-488, looked up)
chain: MWESKFAKESLTFDDVLLIPAQSDILPKDVDLSVQLSDKVKLNIPVISAGMDTVTESKMAIAMARQGGLGVIHKNMGVEEQADEVQKVKRSENGVISNPFFLTPEESVYEAEALMGKYRISGVPIVDNKEDRNLVGILTNRDLRFIEDFSIKIVDVMTQENLITAPVNTTLEEAEKILQKHKIEKLPLVKDGRLEGLITIKDIEKVIEFPNAAKDEHGRLLVAAAIGISKDTDIRAQKLVEAGVDVLVIDTAHGHSKGVIDQVKHIKKTYPEITLVAGNVATAEATKDLFEAGADIVKVGIGPGSICTTRVVAGVGVPQITAIYDCATEARKHGKAIIADGGIKFSGDIIKALAAGGHAVMLGSLLAGTEESPGATEIFQGRQYKVYRGMGSLGAMEKGSNDRYFQEDKAPKKFVPEGIEGRTAYKGALQDTIYQLMGGVRAGMGYTGSHDLRELREEAQFTRMGPAGLAESHPHNIQITKESPNYSF
notes: also called IMPDHsa; class II IMPDH
B3: Legionella pneumophila subsp. pneumophila inosine-5'-monophosphate dehydrogenase (enzyme)
chain: MPLSIVQQSLTFDDVLLVPAHSTILPKDVSLKTKLTRAIHLNMPLISAAMDTVTEARLAIALAQEGGLGIIHKNMSIADQAEEVRRVKKFESGMVKDPISVTPDLTVKELLAVMTKYNFSGVPVVDGKHLVGIVTSRDIRFETNMNLTVAQVMTPKGRLVTVKEGASREEVRSLLHKHRIEKLLVVNENFELRGLITVKDIQKAKDNPYACKDSFEQLRVGAAVGVGEGTDERVAALVESGVDVIVVDTAHGHSQGVLNRVKWIKKNYPDVQVIGGNIATAAAARDLYEAGADAVKVGIGPGSICTTRIVTGVGIPQISAIANVAQELKGIIPVIADGGIRFSGDVCKALAAGADTVMLGSMFAGTEESPGEIELYQGRTYKNYRGMGSIGAMSLAQGSSDRYFQDASLGTEKLVPEGIEGRVPYKGPVQTIIHQLLGGLRSCMGYTGCATIEELHSKTEFVQVTNAGMRESHVHDVSITKQAPNYQVDN
notes: also called IMPDHlpp; class I IMPDH
B4: Neisseria meningitidis inosine-5'-monophosphate dehydrogenase (enzyme, Neisseria meningitidis strain FAM18, UniProt Q9JZB5 1-487, looked up)
chain: MRIVEKAYTFDDVLLVPAHSTVLPRDVKLQTKLTREITLNLPLLSAAMDTVTEARLAISMAQEGGIGIIHKNMPPEMQARAVSKVKRHESGVVKDPVTVAPTTLIREVLEMRAQRKRKMSGLPVVENGKVVGIVTNRDLRFENRVDLPVSAIMTPRERLVTVPEGTSIDEARELMHTHKVERVLVLNEKDELKGLITVKDILKTTEFPNANKDSEGRLRVGAAVGTGGDTEERVKALVEAGVDVIVVDTAHGHSQGVIDRVRWVKETYPHIQVIGGNIATAKAALDLVAAGADAVKVGIGPGSICTTRIVAGVGVPQLTAIHNVAEALKGTGVPLIADGGIRFSGDIAKALAAGAYSVMLGGMFAGTEEAPGEIELYQGRSYKSYRGMGSLGAMSQGSADRYFQDKTDSTDKYVPEGIEGRVPYKGPIVNIIHQLTGGLRSSMGYLGCANIAEMHEKAEFVEITSAGMSESHVHDVQITKEAPNYHR
notes: also called IMPDHnm; class I IMPDH
B5: Pseudomonas aeruginosa inosine-5'-monophosphate dehydrogenase (enzyme, UniProt Q9HXM5 1-489, looked up)
chain: MLRISQEALTFDDVLLIPGYSEVLPKDVSLKTRLTRGIELNIPLVSAAMDTVTEARLAIAMAQEGGIGIIHKNMGIEQQAAEVRKVKKHETAIVRDPVTVTPSTKIIELLQMAREYGFSGFPVVEQGELVGIVTGRDLRVKPNAGDTVAAIMTPKDKLVTAREGTPLEEMKAKLYENRIEKMLVVDENFYLRGLVTFRDIEKAKTYPLASKDEQGRLRVGAAVGTGADTGERVAALVAAGVDVVVVDTAHGHSKGVIERVRWVKQTFPDVQVIGGNIATAEAAKALAEAGADAVKVGIGPGSICTTRIVAGVGVPQISAIANVAAALEGTGVPLIADGGIRFSGDLAKAMVAGAYCVMMGSMFAGTEEAPGEIELFQGRSYKSYRGMGSLGAMSGSQGSSDRYFQDASAGAEKLVPEGIEGRVPYKGALSAIVHQLMGGLRAAMGYTGSADIQQMRTQPQFVRITGAGMAESHVHDVQITKEAPNYRVG
notes: also called IMPDHpa; class I IMPDH

Biological target: the molecule itself
Experiment: SEC

Row | Protein | stoichiometry N
1 | B1 | ~4
2 | B2 | ~4
3 | B3 | ~8
4 | B4 | ~8
5 | B5 | ~8

Biological target: the molecule itself
Experiment: AUC

Row | Protein | stoichiometry N
6 | B1 | 4
7 | B2 | 4
8 | B3 | 8
9 | B4 | 8

Biological target: the molecule itself
Experiment: AUC
Remark: another data set of the same source

Row | Protein | stoichiometry N
10 | B1 | 8
11 | B2 | 8
12 | B5 | 8
